Columns and labels:
TRIM25 CC-PRY/SPRY [1] = biological target: T1, TRIM25 CC-PRY/SPRY (Homo sapiens, UniProt Q14258 189-630); assay: ITC; settings: mean of replicates 15;29;20;9; ITC: 20 mM MES pH 6.5, 75 mM NaCl, 0.5 mM TCEP, 20 C; protein NMR: 20 mM sodium phosphate pH 6.5, 150 mM NaCl, 2 mM TCEP, 293 K
TRIM25 CC [2] = biological target: T2, TRIM25 CC (Homo sapiens, UniProt Q14258 189-379); assay: ITC; settings: mean of replicates 59;61;63; ITC: 20 mM MES pH 6.5, 75 mM NaCl, 0.5 mM TCEP, 20 C; protein NMR: 20 mM sodium phosphate pH 6.5, 150 mM NaCl, 2 mM TCEP, 293 K
[3] = biological target: the molecule itself; assay: SEC-MALS; 50 µl injected onto Superdex 200 5/150 GL in 20 mM MES, pH 6.5, 75 mM NaCl, 0.5 mM TCEP, 0.3 ml/min, room temperature
TRIM25 CC-PRY/SPRY [4] = biological target: T1, TRIM25 CC-PRY/SPRY; assay: ITC; ITC: 20 mM MES pH 6.5, 75 mM NaCl, 0.5 mM TCEP, 20 C; protein NMR: 20 mM sodium phosphate pH 6.5, 150 mM NaCl, 2 mM TCEP, 293 K; settings: protein: recombinant, tags: His-Trx, cleaved (3C), chain copies: 2
TRIM25 CC [5] = biological target: T2, TRIM25 CC; assay: as above; settings: protein: recombinant; tags: His-Trx, cleaved (3C); chain copies: 2; hairpin
TRIM25 CC-PRY/SPRY-m9 [6] = biological target: T3, TRIM25 CC-PRY/SPRY-m9 (Homo sapiens, UniProt Q14258 189-630, K283A;K285A;K320E;Y323E;H331E;K332E;H505E;K508E;K602E); assay: ITC; 200 uM RNA, 20 uM protein; ITC: 20 mM MES pH 6.5, 75 mM NaCl, 0.5 mM TCEP, 20 C; protein NMR: 20 mM sodium phosphate pH 6.5, 150 mM NaCl, 2 mM TCEP, 293 K; settings: protein: recombinant; tags: His-Trx, cleaved (3C); chain copies: 2; hairpin
TRIM25 CC-m4 = TRIM25 CC-m4 (Homo sapiens, UniProt Q14258 189-379, K320E;Y323E;H331E;K332E); assay: ITC; 400 uM RNA, 50 uM protein; ITC: 20 mM MES pH 6.5, 75 mM NaCl, 0.5 mM TCEP, 20 C; protein NMR: 20 mM sodium phosphate pH 6.5, 150 mM NaCl, 2 mM TCEP, 293 K; settings: protein: recombinant; tags: His-Trx, cleaved (3C); chain copies: 2; hairpin
TRIM25 PRY/SPRY-m3 = TRIM25 PRY/SPRY-m3 (Homo sapiens, UniProt Q14258 439-630, H505E;K508E;K602E); assay: as above; settings: protein: recombinant; tags: His-Trx, cleaved (3C); chain copies: 3; hairpin
TRIM25 PRY/SPRY-m3, sequence (Q14258 439-630 H505E/K508E/K602E): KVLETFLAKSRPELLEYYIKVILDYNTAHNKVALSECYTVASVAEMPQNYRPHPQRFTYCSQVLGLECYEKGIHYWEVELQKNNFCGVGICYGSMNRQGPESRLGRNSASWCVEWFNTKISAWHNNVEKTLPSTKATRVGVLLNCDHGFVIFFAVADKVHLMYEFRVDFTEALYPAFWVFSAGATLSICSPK

TRIM25 CC-m2 = TRIM25 CC-m2 (Homo sapiens, UniProt Q14258 189-379, K283A;K285A); assay: ITC; enthalpy reduced about 10-fold; ITC: 20 mM MES pH 6.5, 75 mM NaCl, 0.5 mM TCEP, 20 C; protein NMR: 20 mM sodium phosphate pH 6.5, 150 mM NaCl, 2 mM TCEP, 293 K; settings: protein: recombinant; tags: His-Trx, cleaved (3C); chain copies: 2; hairpin
TRIM25 PRY/SPRY [7] = biological target: T4, TRIM25 PRY/SPRY (Homo sapiens, UniProt Q14258 439-630); assay: ITC; Supplementary Table 1 first row (probably pre-let-7) reads 0.76-0.97 uM; ITC: 20 mM MES pH 6.5, 75 mM NaCl, 0.5 mM TCEP, 20 C; protein NMR: 20 mM sodium phosphate pH 6.5, 150 mM NaCl, 2 mM TCEP, 293 K; settings: protein: recombinant; tags: His-Trx, cleaved (3C); chain copies: 3; hairpin
T4 sequence (Q14258 439-630): as the sequence (Q14258 439-630 H505E/K508E/K602E) above, with E67H, E70K, E164K counted along it

TRIM25 CC-PRY/SPRY [8] = biological target: T1, TRIM25 CC-PRY/SPRY; assay: ITC; KD1 of two sites, mean of replicates 0.015;0.016;0.011; ITC: 20 mM MES pH 6.5, 75 mM NaCl, 0.5 mM TCEP, 20 C; protein NMR: 20 mM sodium phosphate pH 6.5, 150 mM NaCl, 2 mM TCEP, 293 K; settings: protein: recombinant; tags: His-Trx, cleaved (3C); chain copies: 2; hairpin with bulge
TRIM25 PRY/SPRY [9] = biological target: T4, TRIM25 PRY/SPRY; assay: ITC; mean of replicates 0.3;0.7;0.3;0.2;0.6; DENV-SL in cell; ITC: 20 mM MES pH 6.5, 75 mM NaCl, 0.5 mM TCEP, 20 C; protein NMR: 20 mM sodium phosphate pH 6.5, 150 mM NaCl, 2 mM TCEP, 293 K; settings: protein: recombinant; tags: His-Trx, cleaved (3C); chain copies: 3; hairpin with bulge
TRIM25 CC-PRY/SPRY [10] = biological target: T1, TRIM25 CC-PRY/SPRY; assay: ITC; KD1 of two sites, mean of replicates 0.25;0.03;0.02; ITC: 20 mM MES pH 6.5, 75 mM NaCl, 0.5 mM TCEP, 20 C; protein NMR: 20 mM sodium phosphate pH 6.5, 150 mM NaCl, 2 mM TCEP, 293 K; settings: protein: recombinant; tags: His-Trx, cleaved (3C); chain copies: 2; hairpin
TRIM25 PRY/SPRY [11] = biological target: T4, TRIM25 PRY/SPRY; assay: ITC; ITC: 20 mM MES pH 6.5, 75 mM NaCl, 0.5 mM TCEP, 20 C; protein NMR: 20 mM sodium phosphate pH 6.5, 150 mM NaCl, 2 mM TCEP, 293 K; settings: protein: recombinant; tags: His-Trx, cleaved (3C); chain copies: 3; stem-loop (called 28-mer duplex RNA)
TRIM25 CC-PRY/SPRY [12] = biological target: T1, TRIM25 CC-PRY/SPRY; assay: ITC; KD1 of two sites; ITC: 20 mM MES pH 6.5, 75 mM NaCl, 0.5 mM TCEP, 20 C; protein NMR: 20 mM sodium phosphate pH 6.5, 150 mM NaCl, 2 mM TCEP, 293 K; settings: protein: recombinant; tags: His-Trx, cleaved (3C); chain copies: 2; hairpin
TRIM25 CC-PRY/SPRY-m9 [13] = biological target: T3, TRIM25 CC-PRY/SPRY-m9; assay: ITC; 300 uM RNA, 30 uM protein; ITC: 20 mM MES pH 6.5, 75 mM NaCl, 0.5 mM TCEP, 20 C; protein NMR: 20 mM sodium phosphate pH 6.5, 150 mM NaCl, 2 mM TCEP, 293 K; settings: protein: recombinant; tags: His-Trx, cleaved (3C); chain copies: 2; hairpin
TRIM25 PRY/SPRY [14] = biological target: T4, TRIM25 PRY/SPRY; assay: NMR; CSPs in binding site 1 only; ITC: 20 mM MES pH 6.5, 75 mM NaCl, 0.5 mM TCEP, 20 C; protein NMR: 20 mM sodium phosphate pH 6.5, 150 mM NaCl, 2 mM TCEP, 293 K; settings: protein: recombinant; tags: His-Trx, cleaved (3C); single-stranded
TRIM25 PRY/SPRY [15] = biological target: T4, TRIM25 PRY/SPRY; assay: NMR; CSPs in binding site 2 only; ITC: 20 mM MES pH 6.5, 75 mM NaCl, 0.5 mM TCEP, 20 C; protein NMR: 20 mM sodium phosphate pH 6.5, 150 mM NaCl, 2 mM TCEP, 293 K; settings: protein: recombinant; tags: His-Trx, cleaved (3C); chain copies: 3; hairpin

**Q.** How did the Kd (TRIM25 CC-PRY/SPRY [1]) turn out when Lnczc3h7a loop was run?
**A.** 18000 nM

**Q.** What about the Kd (TRIM25 CC [2]) of the same molecule?
**A.** 61000 nM

B1: TRIM25 CC (aa 189–379) (domain or fragment, human, UniProt Q14258 189-379, looked up)
chain: ASLSQASADLEATLRHKLTVMYSQINGASRALDDVRNRQQDVRMTANRKVEQLQQEYTEMKALLDASETTSTRKIKEEEKRVNSKFDTIYQILLKKKSEIQTLKEEIEQSLTKRDEFEFLEKASKLRGISTKPVYIPEVELNHKLIKGIHQSTIDLKNELKQCIGRLQEPTPSSGDPGEHDPASTHKSTRP
notes: also called CC domain; coiled-coil (CC) dimerisation domain
**Q.** Does B1 bind [3]?
**A.** binds

B2: TRIM25 CC-m2 (domain or fragment, human, UniProt Q14258 189-379, looked up)
chain: ASLSQASADLEATLRHKLTVMYSQINGASRALDDVRNRQQDVRMTANRKVEQLQQEYTEMKALLDASETTSTRKIKEEEKRVNSKFDTIYQILLAKASEIQTLKEEIEQSLTKRDEFEFLEKASKLRGISTKPVYIPEVELNHKLIKGIHQSTIDLKNELKQCIGRLQEPTPSSGDPGEHDPASTHKSTRP
**Q.** Does B2 bind [3]?
**A.** binds

B3: TRIM25 CC-m4 (domain or fragment, human, UniProt Q14258 189-379, looked up)
chain: ASLSQASADLEATLRHKLTVMYSQINGASRALDDVRNRQQDVRMTANRKVEQLQQEYTEMKALLDASETTSTRKIKEEEKRVNSKFDTIYQILLKKKSEIQTLKEEIEQSLTKRDEFEFLEKASKLRGISTEPVEIPEVELNEELIKGIHQSTIDLKNELKQCIGRLQEPTPSSGDPGEHDPASTHKSTRP
**Q.** Does B3 bind [3]?
**A.** binds

**Q.** With GUAUAGUUUAAAAGGAGAUAACUAUAC (structured_RNA) [pre-let-7a-1@2 (pre-let-7)] as the molecule, how does the Kd (TRIM25 CC-PRY/SPRY [4]; hairpin) read?
**A.** 62 ± 44 nM

**Q.** What about the Kd (TRIM25 CC [5]) of the same molecule?
**A.** 3200 ± 700 nM

**Q.** Does GUAUAGUUUAAAAGGAGAUAACUAUAC (structured_RNA) [pre-let-7a-1@2 (pre-let-7)] bind (TRIM25 CC-PRY/SPRY-m9 [6])?
**A.** no binding

**Q.** Does GUAUAGUUUAAAAGGAGAUAACUAUAC (structured_RNA) [pre-let-7a-1@2 (pre-let-7)] bind (TRIM25 CC-m4)?
**A.** no binding

**Q.** Does GUAUAGUUUAAAAGGAGAUAACUAUAC (structured_RNA) [pre-let-7a-1@2 (pre-let-7)] bind (TRIM25 PRY/SPRY-m3)?
**A.** no binding

**Q.** What about the Kd (TRIM25 CC-m2) of the same molecule?
**A.** 4000 ± 2000 nM

**Q.** And the Kd (TRIM25 PRY/SPRY [7])?
**A.** 4000 ± 1000 nM

**Q.** Which results are given for GCAGGUCGGAUUAAGCCAUAGUACGGGAAAAACUAUGCUACCUG (structured_RNA) [DENV-SL]?
**A.** Kd (TRIM25 CC-PRY/SPRY [8]): 14 nM; Kd (TRIM25 PRY/SPRY [9]): 420 nM

**Q.** Which Kd (TRIM25 CC-PRY/SPRY [10]) does the source give for UUUUAUCUGAGUUGGAGGUGAAG (structured_RNA) [Lnczc3h7a-SL] here?
**A.** 100 nM

**Q.** Which Kd (TRIM25 PRY/SPRY [11]) does the source give for AUGGCUAGCUGGAGCCACCCGCAGUUCG (structured_RNA) [28-mer] here?
**A.** 900 nM

**Q.** Which results are given for GUAUAGUUUAAAGAAUGGAUAACUAUAC (structured_RNA) [pre-let-7_modified]?
**A.** Kd (TRIM25 CC-PRY/SPRY [12]): 180 nM; binding result (TRIM25 CC-PRY/SPRY-m9 [13]): no binding

**Q.** UUAGUGGCAGACAAAGGCAUCGAGGCAGCCGCAGAAGUUGUCUGCGAAGU (structured_RNA) [RNA_50_motif1&2] was tested. Which Kd (TRIM25 CC-PRY/SPRY [4]; hairpin with bulge) did it give?
**A.** 3.5 nM

**Q.** Does UAAAAGGAGAU (ssRNA) [pre-let-7 loop] bind (TRIM25 PRY/SPRY [14])?
**A.** binds

**Q.** Does GUAUAGUUCAACUAUAC (structured_RNA) [pre-let-7 stem (stem-fusion)] bind (TRIM25 PRY/SPRY [15])?
**A.** binds

Source: PMC11445558, “The molecular dissection of TRIM25’s RNA-binding mechanism provides key insights into its antiviral activity” (Nature Communications, 2024)
